Experimental data taken from US20170089914A1 (Merck Sharp & Dohme, published 2017).

Molecular target: pembrolizumab F(ab')2 protein
Test: SPR (BIAcore T200), Fab-SASA captured on BSA chip, pembrolizumab F(ab')2 as analyte, 1:1 fit

Sequence of pembrolizumab F(ab')2 protein (chain, as listed by the source, chain 1 of 2): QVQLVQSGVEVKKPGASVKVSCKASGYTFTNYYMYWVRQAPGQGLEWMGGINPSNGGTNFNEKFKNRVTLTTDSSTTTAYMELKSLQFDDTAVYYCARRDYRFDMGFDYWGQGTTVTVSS
Sequence of pembrolizumab F(ab')2 protein (chain, as listed by the source, chain 2 of 2): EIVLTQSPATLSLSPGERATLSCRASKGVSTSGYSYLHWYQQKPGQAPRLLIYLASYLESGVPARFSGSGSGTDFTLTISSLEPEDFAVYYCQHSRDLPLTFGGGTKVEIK

Binder | koff [s⁻¹]
A30514 Fab antibody (Fab-SASA secreted to culture medium) (Fab, V domains shown, Rabbit variable domains from a Fab phage library; Tested as Fab-SASA expressed from the pFASEBA vector and captured on BSA via SASA) VH: QEQLVESGGRLVTPGTPLTLTCTASGFSLGSDFMSWVRQAPGKGLEWIGYIDPRSDIPYYASWAKGRFTISKTSTTVDLKITSPTTEDTATYFCARDLNAGYFNGIFYIWGPGTLVTVSS VL: ELVMTQTPSSVSAAVGDTVTINCQASETVATLLAWYQQKPGQPPKLLIYGASNLESGVPSRFRGSGSGTEFTLTISGMKAEDAATYYCQYGYISTGSNTFGAGTNVEIK | 6.5e-05
A30523 Fab antibody (Fab-SASA secreted to culture medium) (Fab, V domains shown, Rabbit variable domains from a Fab phage library; Tested as Fab-SASA expressed from the pFASEBA vector and captured on BSA via SASA) VH: QEQLVESGGRLVTPGTPLTLTCTASGFSLGSDFMSWVRQAPGKGLEWIGYIDPRSDIPYYASWAKGRFTISKTSTTVDLKITSPTTEDTATYFCARDLNAGYFNGIFYIWGPGTLVTVSS VL: ELDMTQTPSSTSEPVGGTVTINCQASQTISSYLSWYQQKPGHPPKLLIYDASDLASGVPSRFSGSRSGTQFTLTISGVQCDDAATYYCLGVYDYRSDDGAAFGGGTELEIL | 0.00034
A30633 Fab antibody (Fab-SASA secreted to culture medium) (Fab, V domains shown, Rabbit variable domains from a Fab phage library; Tested as Fab-SASA expressed from the pFASEBA vector and captured on BSA via SASA) VH: QSLEESGGRLVTPGTPLTLTCTVSGFSLSTNDMNWVRQAPGKGLEWIGVIYSDDTPDYATWAKGRFTISRTSTTVDLKITSPTTEDTATYFCARGHYDSAVYAYALNIWGPGTLVTVSS VL: ELVMTQTPSSVSAAVGGTVTITCQASQSLSNLLAWYQQKPGQPPKLLIYGASNLESGVPSRFRGSGSGTDFTLTISGMKAEDAATYYCQGGHYSGLTFGNGTNVEIK | 0.0012
